The test has as its target T1, BSA (UniProt P02769 25-607).
T1 construct: also called bovine serum albumin; immobilized BSA
Nature of the test: indirect ELISA heat map, hIgG subtracted. (An ELISA detects its analyte on a solid surface through an enzyme-linked reagent.)

Where a chain is given by its changes, count along the chain named.

T1 sequence (P02769 25-607 limits assumed): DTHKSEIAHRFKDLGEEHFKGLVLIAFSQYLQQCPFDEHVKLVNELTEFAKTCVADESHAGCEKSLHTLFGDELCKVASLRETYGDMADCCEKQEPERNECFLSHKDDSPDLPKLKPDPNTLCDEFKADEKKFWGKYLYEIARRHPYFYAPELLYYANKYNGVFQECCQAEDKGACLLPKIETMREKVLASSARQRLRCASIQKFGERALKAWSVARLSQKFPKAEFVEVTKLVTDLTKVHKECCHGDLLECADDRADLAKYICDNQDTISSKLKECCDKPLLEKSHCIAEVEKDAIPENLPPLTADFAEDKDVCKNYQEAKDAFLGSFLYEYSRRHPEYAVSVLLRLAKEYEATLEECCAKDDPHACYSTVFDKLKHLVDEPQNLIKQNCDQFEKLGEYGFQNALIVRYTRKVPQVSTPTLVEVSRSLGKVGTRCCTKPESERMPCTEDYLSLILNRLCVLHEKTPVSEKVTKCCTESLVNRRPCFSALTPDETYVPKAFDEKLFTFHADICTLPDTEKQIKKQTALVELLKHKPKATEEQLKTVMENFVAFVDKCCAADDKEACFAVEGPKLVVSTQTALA

B1: PA01P2E08 (antibody, human IgG1, V domains shown)
VH: QVQLVESGGGVVQPGRSLRLSCVASGFDLNAYGMHWVRQAPGKGLDWVAATSRGGTKKYYADSVKGRFTISRDVSKNTLYLQMGSLRTGDTAIYYCGVGMEDVFDIWGQGTMVTVSP
VL: QSVLTQPPSVSAAPGQKVTISCSENNSNIGNRNVSWYQQLPGKAPKLFIYDNNERPSGIPARFSGSKSGTSATLVITGLQTGDEADYYCGTWDRSLSVWVFGGGTKLTVL
Consider B1, for which the binding result is recorded as “no binding (tested: 2 ng/µL)”.

B2: PA01P2C04 (antibody, V domains shown)
VH: QVQLQESGPGLVKPSETLSLTCSVSGGSISSHYWSWIRQPPGRGLEWIAYISYSGRTKYNPSLKSRVTISEDTSKNQFSLKLSSVTPADTAVYYCARIYGDYGPFIDYWGQGTLVTVSS
VL: DIQMTQSPSSLSASVGDRVTITCRASQTISTYLNWYQQKPGTAPMLLIYGAYSLHSGVPSRFSGSGSGTDFTLTISSLQPEDFATYYCQQSSSLPLTFGGGTKVEIK
notes: subject PA01; also called Clone PA01P2C04
Turning to B2, the binding result was “no binding (tested: 2 ng/µL)”.

B3: PA01P3E08 (antibody, V domains shown)
VH: QVQLVQSGAEVKKPGASVKVSCKASGYTFIRYDIHWVRQATGQGLEWMGWMNPNNGKSGFAQKFEGRVTLTRNTSVTSTYMQLSSLGLEDTAVYYCVRAGYSYGWGFDYWGQGSLVTVSS
VL: NFTLTQPHSVSGSPGKTVTISCTRSSGGIASSHVQWYQQRPASAPTTLIFEDDQRSSGVPDRFSGSIDTSSNSAYLTISGLEAEDEADYYCQSYDNSMWVFGGGSKVTVL
notes: subject PA01; also called Clone PA01P3E08
B3: the binding result was “no binding (tested: 2 ng/µL)”.

B4: PA01P2C12 (antibody, V domains shown)
VH: HVQLQESGPGLVKSSETLSLTCNVSSDSFSDHYWSWVRQPAGKGLQWLGRIYNTGTTTYNPSLNRRITMSVDTSKNQFSLRLTSVTAADTAVYYCAARHYHYDKTIWGQGTLVTVSS
VL: NFMLTQPHSVSESPGKTVTISCTRSSGSIASNYVQWYQQRPGSPPTTVIYEDNQRPSGVPDRFSGSIDSSSNSASLTISGLKPEDEADFYCQSYDSDDREVFGGGTRLTVL
notes: subject PA01; also called Clone PA01P2C12
For B4, the binding result was “no binding (tested: 2 ng/µL)”.

B5: PA01P2B05 (antibody, human IgG1, V domains shown)
VH: EVQLLESGGGLVQPGGSLRLSCVASGFTFSGHAMSWVRQAPGKGLEWVSGISGSGGSTYYADSVKGRFTISRDNSKKTVDLQMNNLRAEDTAIYYCAKDLHFDTSGYYYSMIFDYWGQGTLVPVSS
VL: QSALAQPASVSGSPGQSITISCTGTSSDISDYNYVSWYQQHPGKAPKLILYDVNNRPSGVSSRFSGSKSGDTASLTISGLQPEDEADYYCSSYTSTKIFGGGTKVTVL
In the case of B5, the binding result was “no binding (tested: 2 ng/µL)”.

B6: PA01P2D09 (antibody, human IgG1, V domains shown)
VH: EVQLLESGGGLVQPGGSLRLSCAVSGLKFSSYAMSWVRQAPGKGLEWVSVVSGSSGSTFYAVSVEGRFSISRDNSNNMLYMDMHSLRVEDTAKYYCAKVVGWYYDRNGNRRPKGFRAFDVWGQGTMVIVSS
VL: QSVLTQPPSASGTPGQRITIACSGTTSNIGGNSVNWYQQFPGAAPRLLIFDYDQRPSGVPARFSGSSSGSSGYLAISGLQSEDEADYYCSSWDDNLNGWVFGGGTKLTVL
notes: also called PA1P2D09
For B6, the binding result is “no binding (tested: 2 ng/µL)”.

B7: PA01P2G07 (antibody, V domains shown)
VH: QVLLVQSGSEVKNPGASIRVSCKTSGYMFTNNGIAWVREVPTQGLEWMGWISTYSGATHYAPNLHGRITMTADTSASTAYMELRSLQSGDTGVYYCARLWFGKLGLDFWGQGTQVTVSS
VL: QSVLTQPPSASGTPGQRVIISCSGSTSNIGTKTVNWYQHLPGTAPKLLIYNNNQRPSGVPDRFSGSKSGTSASLTISGLQSEDEADYYCAAWDDSLNGRGLFGPGTKVTVL
notes: subject PA01; also called Clone PA01P2G07
Consider B7, for which the binding result is on record as “no binding (tested: 2 ng/µL)”.

B8: PA01P2B09 (antibody, V domains shown)
VH: QVEVVESGGGVVQPGKSLRLSCAASGFKFNVYGIHWVRQAPGKGLEWVAVVWYDGSNKYYADSVKGRFTISRDNSKNTTYLQMDSLRVDDTAVYYCARELQYSNYDYFYAMDVWGQGTTVTVSS
VL: DIQMTQSPPSLSASVGDRVTITCRASQDIDNYLVWFQQKPGRAPKSLIYAASSLQSGVPSKFSGSGSGTEFTLTISSLQPEDFATYYCQQYNSFPYTFGQGTKLEIK
notes: subject PA01; also called Clone PA01P2B09
For the molecule B8, the binding result is listed as “no binding (tested: 2 ng/µL)”.

B9: PA01P2D10 (antibody, human IgG1, V domains shown)
VH: EVLLLESGGGLVHPGGTLRLSCAASGFTFRNSAMTWVRQAPGKGLEWVSSIGGSGAKSYYADSVKGRFTISRDNSKNTLYLEMNTLRVDDTAIYYCAKDQLNCYDLWSGDYCWFDTWGQGTLVTVSS
VL: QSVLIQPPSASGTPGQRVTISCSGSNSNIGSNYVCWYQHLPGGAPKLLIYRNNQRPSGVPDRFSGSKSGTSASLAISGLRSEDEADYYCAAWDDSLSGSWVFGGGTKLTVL
In the case of B9, the binding result is “no binding (tested: 2 ng/µL)”.

B10: PA01P2D11 (antibody, V domains shown)
VH: QLQLQESGSGLVKPSQTLSLTCDVSGDSMNDDVYTWSWIRQPPGRGLEWIGYISHTGNTFYNSSLQSRVTMSVDTSKNQFSLKLSSVTIADTAVYYCARLTFLFSAPFSSFNWFDPWGQGILVTVSS
VL: QSVLTQPPSVSGAPGQTITISCTGTPSNFGADYDVHWYQQRPGTAPKLLIFADKHRPSGVPDRFSGSRSGTSASLAISGLQAEDEADYYCQSYDSGVVGLWVFGGGTKVTVL
notes: subject PA01; also called Clone PA01P2D11
B10: the binding result was “no binding (tested: 2 ng/µL)”.

B11: PA01P2E05 (antibody, V domains shown)
VH: QVQLVESGGGFVKPGGSLRLSCAVSGFTFSDYYMSWVRQAPGKGLEWLSHISSDGSDTNYADSVKGRFSISRDNAKNSVFLQMNTLRVEDTAVYYCARNALTNAYDMSGFRNWGQGTLVTVSS
VL: NFMLTQPHSVSESPGKTVILSCTRSSGSIASNYVRWYQQRPGSAPTTVIYEDSRRPSSVPDRFSGSIDSSSNSASLTISGLKTEDEADYYCQSFDSSSRKVVFGGGTKLTVL
notes: subject PA01; also called Clone PA01P2E05
As to B11, the binding result is “no binding (tested: 2 ng/µL)”.

B12: PA01P2C09 (antibody, V domains shown)
VH: B11 VH with Q3D, F11Y, P14S, V24A, T28R, G55S, V88A, T117I
VL: B11 VL with S31T, K82R, S96T
notes: subject PA01; also called Clone PA01P2C09
For B12, the binding result was “no binding (tested: 2 ng/µL)”.

B13: PA01P2E10 (antibody, V domains shown)
VH: QVQLVQSGAEVKKPGASVKVSCKASGYTFTTYGISWVRQAPGQGLEWMGWISAYNGNTTYAQNFHARVTMTTDTSTSTAYMELRSLRSDDTAVYFCARTSARTITIFGVLIPAGLNLDYWGQGTLVTVSS
VL: QSALTQPASVSGSPGQSITISCTGTGSDVGRYNYVSWYQQHPGKAPKFMIYDVSNRPSGVSNRFSASKSGNTASLTISGLQAEDEADYYCSSYTSTSTLVFGGGTKLTVL
notes: subject PA01; also called Clone PA01P2E10
For B13, the binding result was “no binding (tested: 2 ng/µL)”.

B14: PA01P2D04 (antibody, human IgG1, V domains shown)
VH: QVQLLQSGPEVKQPGASVQVSCQTSGYTFTGYYIHWVRQAPGQGLEWVGWINPNRGHTNYGPAFQGRLTLTADTSSSTAYLELTRLRSDDTAVYYCARDRLTGGRDAFEIWGQGTMLIVSS
VL: DIQLTQSPSSLSASVGDRVTITCRASQSISSYLNWYQQKPGKAPKLLISVASSLQDGVPPRFSGSRSGTEFTLTISSLQPEDFAIYYCQQSYSLSWTFGQGTKVEIK
Regarding B14, the binding result was “no binding (tested: 2 ng/µL)”.

B15: PA01P2B12 (antibody, human IgG1, V domains shown)
VH: B14 VH with L5V, P9A, S21A, T28I, G31A, V37L, G61A, A63G, E82A, R87A
VL: B14 VL with I29V, K42E, V50A, S95W
With B15, the binding result was “no binding (tested: 2 ng/µL)”.

B16: PA01P4C11 (antibody, V domains shown)
VH: EVQLLESGGGLLQLGGSLRLSCAASGFTFSSYVMSWVRQAPGKGLEWVSLITGSGGNTYYADSVKGRFTISRDNSKNTLFLQMNSLRVEDTAIYYCVKTDFYDSSGYYFHDAFHIWGQGTMVTVSS
VL: QTVVTQEPSLTVSPGGTVTLTCASSTGSVTSGYYPNWFQQKPGQAPRTLIYGTSNKHSWTPARFSGSLLGGKAALTLSDVQPEDEAEYYCLLYYGGAYVFGTGTKVTVL
notes: subject PA01; also called Clone PA01P4C11
For B16, the binding result is listed as “no binding (tested: 2 ng/µL)”.

(Values after US20210246195A1 (CZ BIOHUB SF, published 2021).)
